How the values were obtained:
[1] = test system: Scd6 (His-Scd6-FLAG), arginine-methylated in vitro by Hmt1 (Saccharomyces cerevisiae); experiment: EMSA; conditions: EMSA: 10 mM Tris pH 8, 50 mM NaCl, 0.05% NP-40, 6% glycerol, 1 mM DTT, 2 ug/ml BSA, 0.5 ug/ml tRNA, 30 C 30 min; 2.5% agarose, 1x MOPS, EtBr
[2] = test system: Scd6 (His-Scd6-FLAG, unmethylated) (Saccharomyces cerevisiae); experiment: EMSA; conditions: EMSA: 10 mM Tris pH 8, 50 mM NaCl, 0.05% NP-40, 6% glycerol, 1 mM DTT, 2 ug/ml BSA, 0.5 ug/ml tRNA, 30 C 30 min; 2.5% agarose, 1x MOPS, EtBr

SRS2 5'UTR 200-mer RNA
Kd [1]: 2700 nM
Kd [2]: 2860 nM

From paper PMC12116771
